Measurements published in patent US20210347912A1.

Target: Human YKL-40 also known as Chitinase-3-like protein 1 (CHI3L1) (human) (UniProt P36222)
Assay: phage ELISA, plate coated with 0.5 ug purified YKL-40, anti-M13-HRP/TMB, well F2

Chain of UniProt P36222 (P36222 22-383 limits assumed): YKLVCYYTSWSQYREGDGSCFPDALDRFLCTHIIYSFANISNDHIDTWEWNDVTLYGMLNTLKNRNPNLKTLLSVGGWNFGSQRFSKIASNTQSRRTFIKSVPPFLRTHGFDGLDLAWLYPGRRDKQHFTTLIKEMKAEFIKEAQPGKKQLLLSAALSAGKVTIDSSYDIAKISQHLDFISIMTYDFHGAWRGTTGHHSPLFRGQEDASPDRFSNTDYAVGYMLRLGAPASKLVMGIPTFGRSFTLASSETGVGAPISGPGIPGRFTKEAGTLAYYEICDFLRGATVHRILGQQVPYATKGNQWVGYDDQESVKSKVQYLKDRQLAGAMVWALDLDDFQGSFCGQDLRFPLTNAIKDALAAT

B1: 2B8 predator (VHH)
VHH: EVQLLESGGGLVQPGGSLRLSCAASGFRDSDEDMGWVRQAPGKGLEWVSSIYAPNGSTYYADSVKGRFTISRDNSKNTLYLQMNSLRAEDTAVYYCASNTYDAFDYWGQGTLVTVSS
ELISA signal: 0.054
